Experiments:
[1] = molecular target: ZZ-ctRed1_(spep) (residues 1040–1091) (Chaetomium thermophilum); experiment: ITC; MicroCal PEAQ-ITC, 25 °C, 20 mM HEPES pH 7.5, 150 mM NaCl; 30 µM ZZ-ctRed1spep in the cell, 250 µM ctMtr4SA in the syringe; duplicate
[2] = molecular target: T1, full-length spArs2 (in vitro binding) (S. pombe, UniProt O94326 1-609); experiment: pull-down; GST pull-down: bait with 1.5 molar excess of prey, 20 mM HEPES pH 7.5, 150 mM NaCl (or higher, up to 600 mM or 1.5 M in the washes), 5% glycerol, 0.1% NP-40, 4 °C, glutathione agarose; SDS-PAGE, Coomassie; details: both partners purified
T1 construct: Ars2, S. pombe; source: E. coli (vectors for expression in E. coli)
T1 sequence (looked up): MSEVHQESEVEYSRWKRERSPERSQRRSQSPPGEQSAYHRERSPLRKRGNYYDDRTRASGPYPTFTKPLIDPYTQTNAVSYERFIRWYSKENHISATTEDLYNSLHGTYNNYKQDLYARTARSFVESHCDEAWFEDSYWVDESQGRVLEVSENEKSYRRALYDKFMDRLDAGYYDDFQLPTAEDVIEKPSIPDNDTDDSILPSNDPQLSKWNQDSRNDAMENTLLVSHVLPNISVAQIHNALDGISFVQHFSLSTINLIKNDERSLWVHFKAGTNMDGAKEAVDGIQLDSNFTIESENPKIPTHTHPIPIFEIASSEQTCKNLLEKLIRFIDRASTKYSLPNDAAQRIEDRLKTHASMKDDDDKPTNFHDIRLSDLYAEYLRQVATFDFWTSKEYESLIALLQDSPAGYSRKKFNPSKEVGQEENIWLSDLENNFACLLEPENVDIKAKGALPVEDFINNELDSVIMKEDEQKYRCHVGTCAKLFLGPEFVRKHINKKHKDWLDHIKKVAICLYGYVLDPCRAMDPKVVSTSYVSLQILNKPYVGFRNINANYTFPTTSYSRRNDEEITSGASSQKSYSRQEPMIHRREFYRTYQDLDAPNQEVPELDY

## ctMtr4SA (residues 654–865), purified for ITC (domain or fragment)
[1]
  Kd: 115 nM
  stoichiometry N: 1

B1: GST-tagged spRed1 peptide (SDKEDGEISEDDP) (peptide)
chain: SDKEDGEISEDDP
notes: source: E. coli (vectors for expression in E. coli)
[2]
  binding result: binds

Source: article PMC8187409, “The zinc-finger protein Red1 orchestrates MTREC submodules and binds the Mtl1 helicase arch domain” (Nature Communications, 2021)
